These results are taken from patent publication US20260085114A1 (KYINNO BIOTECHNOLOGY, published 2026).

For assay [1], the target named is T1, human GPRC5D (G protein-coupled receptor class C group 5 member D), on cells (human, UniProt Q9NZD1 1-345).
T1 construct: whole, on cells; also called hGPRC5D
Put plainly: FACS, hybridoma supernatant on MM1R cells. For orientation: In flow cytometry, cells or beads pass a laser one at a time.

Assay [2] addresses T2, monkey (cyno) GPRC5D, on 293T cells (monkey (cyno)).
T2 construct: whole, on cells; also called monkey GPRC5D
Kind of assay: FACS, hybridoma supernatant on 293T cells expressing monkey GPRC5D. The source says:
(§1) According to the method described in Example 4, the binding between the culture supernatant of the hybridoma cells and monkey GPRC5D was detected, except that the human GPRC5D-expressing cells were replaced with 293T cells expressing monkey GPRC5D (Kyinno, catalog number KC-1586).

Assay [3] deals with T3, Nalm6 cells (NALM6, Kyinno, catalog number KC-0626).
T3 construct: Kept apart from human GPRC5D so that the low MFI values on this line are not laid to the GPRC5D pair
Kind of assay: FACS, hybridoma supernatant on Nalm6 cells.

Assay [4] concerns the target T1, human GPRC5D (G protein-coupled …). Put plainly: FACS, hybridoma supernatant on OPM2 cells.
The target is the same in assay [5]. Put plainly: FACS, hybridoma supernatant on 293T cells expressing human GPRC5D. The method, then:
(§2) 293T cells expressing human GPRC5D as described above was prepared into a suspension at concentration of 1×10⁵ cells/ml in PBS containing 2% FBS.
(§3) 1 ml of FACS buffer was added to each FACS tube, centrifuged at 1200 rpm for 5 mins. The supernatant was discarded followed by washing three times. At the same time, control tube 1 (no supernatant of the culture and the secondary antibody mentioned below, adding only cell suspension) and control tube 2 (no supernatant of the culture, adding only cell suspension and the secondary antibody mentioned below) were included.
(§4) 100 μl of FACS buffer was then added to each FACS tube for resuspension. 5 μl of PE-labeled, anti-murine Fc tagged secondary antibody (Biolegend, catalog number 409304) was added according to instructions, and incubated at 4° C. in the dark for 30 mins. Then 1 ml of FACS buffer was added, and centrifuged at 1200 rpm at room temperature for 5 mins. The supernatant was discarded followed by washing three times.

Assay [6] has the same target. Put plainly: FACS, hybridoma supernatant on NCI-H929 cells. The method, then: as §4
Assay [7] has the same target. Put plainly: cell ELISA, hybridoma supernatant on fixed BXPC-3 cells expressing human GPRC5D. As for the experimental part: BXPC-3 cells expressing human GPRC5D (Kyinno, catalog number KC-1717) were prepared into a suspension at concentration of 1×10⁵ cells/ml in PBS containing 2% FBS. The suspension was added to a 96-well plate at 100 μl/well and cultured overnight at 37° C. The wells were cleared of their contents and washed three times with washing solution. 80 μl of 4% tissue fixative (Beyotime, catalog number P0099) was added to each well followed by fixing at room temperature for 15 min, washing twice with PBS and drying. 250 μl of blocking solution containing 2% BSA was added to each well followed by incubation at 37° C. for 1 hr and washing three times with PBS. 50-100 μl of the supernatant of the hybridoma cell culture was added to each well. A positive control (adding serum from fusion mice), a negative control (adding serum from normal mice) and a blank control (adding culture medium) were included. The wells were incubated at 37° C. for 1-2 hrs, washed, and dried. Then, the enzyme-labeled secondary antibody, HRP-labeled goat anti-mouse IgG (SIGMA, catalog number A9044-2 ml) was added at dilution of 1:10000 and 50-100 μl/well. The wells were incubated at 37° C. for 1-2 hrs, washed, and dried. 50-100 μl of freshly prepared developing solution TMB was added to each well and incubated at 37° C. for 10-30 mins.
2 mol/L H₂SO₄ was added to terminate the reaction, and the OD value was read on an enzyme-linked immunosorbent reader.
For orientation: In an ELISA, binding on a coated surface is turned into a signal by an enzyme label.

For assay [8] the target is unchanged. Kind of assay: FACS, hybridoma supernatant on 293T cells expressing human GPRC5D. As for the experimental part:
as §2, §3, §4
This is another data set of the same source.

Assay [9] has the same target. The assay is described as above. As for the experimental part: as §2, §3, §4
The source holds these as a separate data set.

In assay [10] the target is T2, monkey (cyno) GPRC5D, on 293T cells. Put plainly: FACS, hybridoma supernatant on 293T cells expressing monkey GPRC5D.
From the text: as §1
The source holds these as a separate data set.

Assay [11] shares this target. Put plainly: FACS on 293T cells expressing monkey GPRC5D.
From the text: as §1

The target in assay [12] is T4, human GPRC5C, on 293T cells (human, UniProt Q9NQ84 24-441).
T4 construct: whole, on cells; also called 293T-GPRC5C
Kind of assay: FACS on 293T-GPRC5C cells, antibody at 2 µg/mL; control tubes 8.86 and 8.73. As for the experimental part: as §4
(§5) The experimental process was as described in Example 4, cells expressing other members of G protein-coupled receptor class C group 5 as follows were used: 293T cells expressing human GPRC5A, 293T-GPRC5A (Kyinno, catalog number KC-1888), 293T cells expressing human GPRC5B, 293T-GPRC5B (Kyinno, catalog number KC-1854), and 293T cells expressing human GPRC5C, 293T-GPRC5C (Kyinno, catalog number KC-1889). […] Control tube 1 (no antibody and secondary antibody, adding only cell suspension) and Control tube 2 (no antibody, adding only cell suspension and secondary antibody) were included.

For assay [13], the target named is T2, monkey (cyno) GPRC5D, on 293T cells. Kind of assay: FACS on 293T cells expressing monkey (cyno) GPRC5D (run with 6E97(hz)). The method, then:
as §4
(§6) The experimental process was as described in Example 4. […] Control tube 1 (no antibody and secondary antibody, adding only cell suspension) and Control tube 2 (no antibody, adding only cell suspension and secondary antibody) were included.

For assay [14] the target is unchanged. Kind of assay: FACS on 293T cells expressing monkey (cyno) GPRC5D (run with 24F5(hz)). The method, then: as §4, §6
Assay [15] shares this target. Kind of assay: FACS on 293T cells expressing monkey (cyno) GPRC5D (run with 9D7(hz)). As for the experimental part:
as §4, §6

Assay [16] addresses T5, human GPRC5B, on 293T cells (human, UniProt Q9NZH0 29-403).
T5 construct: whole, on cells; also called 293T-GPRC5B
Put plainly: FACS on 293T-GPRC5B cells, antibody at 2 µg/mL; control tubes 8.55 and 8.26. The method, then: as §4, §5

Assay [17] addresses T1, human GPRC5D (G protein-coupled …). Put plainly: FACS, hybridoma supernatant on 293T cells expressing human GPRC5D. As for the experimental part:
as §2, §3, §4
This is another data set of the same source.

Where a chain is given by its changes, count along the chain named.

T1 sequence (Q9NZD1 whole entry): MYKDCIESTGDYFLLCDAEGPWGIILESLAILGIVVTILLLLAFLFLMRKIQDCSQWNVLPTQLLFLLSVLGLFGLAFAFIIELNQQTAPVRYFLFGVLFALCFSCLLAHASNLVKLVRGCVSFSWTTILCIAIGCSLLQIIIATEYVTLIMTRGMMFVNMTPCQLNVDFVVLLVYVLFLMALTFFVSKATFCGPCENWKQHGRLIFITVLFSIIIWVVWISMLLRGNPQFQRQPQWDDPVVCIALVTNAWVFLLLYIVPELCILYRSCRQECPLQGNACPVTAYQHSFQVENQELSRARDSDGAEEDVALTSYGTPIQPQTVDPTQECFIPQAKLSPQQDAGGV
T5 sequence (Q9NZH0 29-403): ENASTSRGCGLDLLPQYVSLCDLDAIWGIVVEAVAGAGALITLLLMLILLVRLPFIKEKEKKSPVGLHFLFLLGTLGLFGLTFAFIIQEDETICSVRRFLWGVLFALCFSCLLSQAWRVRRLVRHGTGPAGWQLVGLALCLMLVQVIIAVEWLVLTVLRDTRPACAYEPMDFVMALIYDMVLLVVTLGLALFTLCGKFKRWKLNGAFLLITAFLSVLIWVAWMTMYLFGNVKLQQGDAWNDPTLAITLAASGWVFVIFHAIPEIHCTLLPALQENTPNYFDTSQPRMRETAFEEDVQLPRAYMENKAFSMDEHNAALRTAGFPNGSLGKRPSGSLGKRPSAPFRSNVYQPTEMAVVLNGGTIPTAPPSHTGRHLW
T4 sequence (Q9NQ84 24-441): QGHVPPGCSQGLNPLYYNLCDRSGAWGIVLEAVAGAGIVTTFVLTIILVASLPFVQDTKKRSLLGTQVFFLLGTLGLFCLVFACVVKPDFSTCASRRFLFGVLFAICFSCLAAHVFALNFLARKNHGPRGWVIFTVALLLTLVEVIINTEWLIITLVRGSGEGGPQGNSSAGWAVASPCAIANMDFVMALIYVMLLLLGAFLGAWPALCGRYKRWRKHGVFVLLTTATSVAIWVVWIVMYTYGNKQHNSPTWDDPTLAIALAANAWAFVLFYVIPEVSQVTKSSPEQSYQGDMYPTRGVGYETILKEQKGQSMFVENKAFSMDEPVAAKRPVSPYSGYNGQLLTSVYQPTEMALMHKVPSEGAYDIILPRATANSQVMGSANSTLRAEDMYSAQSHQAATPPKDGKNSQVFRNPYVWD

B1: murine antibody 24F5 (A3 antibody) (antibody, V domains shown)
VH: QVQLKESGPELVKPGASVKISCKASGYTFPYYVMHWVKQKPGQGLEWIGYINPYNDGTKYNEKFKGKAALTSDKSSSTAYMDLSSLTSEDSAVYYCARGGVRRYFDYWGQGTTLTVSS
VL: DIQMTQTPSSLSASLGERVSLTCRASQDIGSNLNWLQQEPDGTIKRLIYATSSLDSGVPKRFSGSRSGSDYSLTISSLESEDFVDYYCLQYATFPYTFGGGTKLEIK
notes: Tested as hybridoma cell culture supernatant; also called murine anti-24F5
Broadly, the EC50 is the concentration needed to bring the measured effect to its halfway point. Consider B1, for which the MFI.Max in [1] worked out at 991 MFI; in assay [2], 6260 MFI; in assay [3], 106 MFI; in assay [4], 1190 MFI; in assay [5], 9520 MFI; in assay [6], 1100 MFI. In addition, the concentration for a half-maximal effect (EC50) came to 0.268 µg/mL in [2], 5.67 µg/mL in assay [4] and 0.117 µg/mL in assay [5]. Further, in assay [7], the OD value came out at 1.54 OD.

B2: murine antibody 6E97 (A4 antibody) (antibody, V domains shown)
VH: B1 VH with M34I, D82E
VL: B1 VL with D1Q, Q3V, M4L, T7S, Y49S, Y87F
notes: Tested as hybridoma cell culture supernatant; also called murine anti-6E97
Turning to B2, the MFI.Max in [1] is 931 MFI; in [2], 6290 MFI; in assay [3], 62.4 MFI; in assay [4] it was 1080 MFI; in [5] it was 9610 MFI; in [6], 900 MFI. Moreover, the EC50 was determined as 0.243 µg/mL in [2], 0.291 µg/mL in assay [4] and 0.111 µg/mL in assay [5]. The same molecule came in with an OD value in [7] of 1.55 OD.

B3: murine antibody 9D7 (A1 antibody) (antibody, V domains shown)
VH: QVQLKESGPGLVKPSQSLSLTCTVTGYSITSDYAWNWIRQFPGNKLEWMGYISYSGSATYNPSLKSRISITRDTSKNQFFLQLNSMTTEDTATYYCARGGIAGRGRWGAMDYWGQGTSVTVSS
VL: DIVMTQAQKFMSTSVGDRVSVTCKASQNVGTNVAWYQNKPGQSPKALIYSASYRDSGVPDRFTGRGSGTDFTLTISNVQSEDLAEYFCQQYKSYPLTFGAGTKLELK
notes: Tested as hybridoma cell culture supernatant; also called murine anti-9D7
Turning to B3, the EC50 in assay [1] is 0.104 µg/mL; in assay [2] it was 0.376 µg/mL; in assay [8], 0.185 µg/mL; in [4], 0.177 µg/mL; in assay [5], 0.183 µg/mL; in assay [6] it was 0.021 µg/mL. The EC50 in [9] was 0.279 µg/mL; in assay [10], 0.229 µg/mL. Besides, the MFI.Max was determined as 554 MFI in [1]; 5440 MFI in [2]; 10.8 MFI in assay [3]; 705 MFI in assay [4]; 9380 MFI in assay [5]; 506 MFI in assay [6]. In addition, the OD value in assay [7] was 0.541 OD.

B4: GPRC5D×CD3 JNJ (anti-hGPRC5D×CD3 bispecific antibody built with the GPRC5D-targeting and CD3-targeting domains of Talquetamab, JNJ-64407564) (bispecific antibody, human IgG1, kappa, lambda)
heavy 1: QVQLVQSGAEVKKPGASVKVSCKASGYSFTGYTMNWVRQAPGQGLEWMGLINPYNSDTNYAQKLQGRVTMTTDTSTSTAYMELRSLRSDDTAVYYCARVALRVALDYWGQGTLVTVSSASTKGPSVFPLAPSSKSTSGGTAALGCLVKDYFPEPVTVSWNSGALTSGVHTFPAVLQSSGLYSLSSVVTVPSSSLGTQTYICNVNHKPSNTKVDKRVEPKSCDKTHTCPPCPAPPAAGPSVFLFPPKPKDTLMISRTPEVTCVVVDVSHEDPEVKFNWYVDGVEVHNAKTKPREEQYNSTYRVVSVLTVLHQDWLNGKEYKCKVSNKALAAPIEKTISKAKGQPREPQVYTLPPCREEMTKNQVSLWCLVKGFYPSDIAVEWESNGQPENNYKTTPPVLDSDGSFLLYSKLTVDKSRWQQGNVFSCSVMHEALHNHYTQKSLSLSPGK
heavy 2: QTVVTQEPSLTVSPGGTVTLTCRSSTGAVTTSNYANWVQQKPGQAPRGLIGGTNKRAPGTPARFSGSLLGGKAALTLSGVQPEDEAEYYCALWYSNLWVFGGGTKLTVLSSASTKGPSVFPLAPSSKSTSGGTAALGCLVEDYFPEPVTVSWNSGALTSGVHTFPAVLQSSGLYSLSSVVTVPSSSLGTQTYICNVNHKPSNTKVDDRVEPKSCDKTHTCPPCPAPPAAGPSVFLFPPKPKDTLMISRTPEVTCVVVDVSHEDPEVKFNWYVDGVEVHNAKTKPREEQYNSTYRVVSVLTVLHQDWLNGKEYKCKVSNKALAAPIEKTISKAKGQPREPQVCTLPPSREEMTKNQVSLSCAVKGFYPSDIAVEWESNGQPENNYKTTPPVLDSDGSFFLVSRLTVDKSRWQQGNVFSCSVMHEALHNHYTQKSLSLSPGK
light 1: DIQMTQSPSSLSASVGDRVTITCKASQNVATHVGWYQQKPGKAPKRLIYSASYRYSGVPSRFSGSGSGTEFTLTISNLQPEDFATYYCQQYNRYPYTFGQGTKLEIKRTVAAPSVFIFPPSDEQLKSGTASVVCLLNNFYPREAKVQWKVDNALQSGNSQESVTEQDSKDSTYSLSSTLTLSKADYEKHKVYACEVTHQGLSSPVTKSFNRGEC
light 2: EVQLVESGGGLVQPGGSLRLSCAASGFTFNTYAMNWVRQAPGKGLEWVARIRSKYNNYATYYAASVKGRFTISRDDSKNSLYLQMNSLKTEDTAVYYCARHGNFGNSYVSWFAYWGQGTLVTVSSGQPKAAPSVTLFPPSSEELQANKATLVCLISDFYPGAVTVAWKADSSPVKAGVETTTPSKQSNNKYAASSYLSLTPEQWKSHRSYSCQVTHEGSTVEKTVAPTECS
notes: used as the positive control antibody throughout; also called Positive control antibody
B4: the EC50 worked out at 13.1 µg/mL in assay [11], 3.27 µg/mL in assay [13], 4.39 µg/mL in [14] and 14 µg/mL in assay [15]. Moreover, the figures for the FACS result in assay [12] and in assay [16] were 8.72 and 8.44, respectively.

B5: murine antibody 26D1 (A2 antibody) (antibody, V domains shown)
VH: QVQLKQSGAELAGPGASVKMSCKASGYTFTSYTIQWIKQRPGQGLEWIGYIIPSSGYTNYNQKFKDKATLTADKSSNTAYMQLSSLTSEDSAVYYCANNYGNWGFTYWGQGTLVTVSA
VL: DILMTQSQKFMSTSVRDRVSISCKASQNVGSAVTWYQQKPGQSPRLLIYSASNRYTGVPDRFTGSGSGTDFTLTISNVQSEDLADYFCQQYSNYPLTFGGGTKLEIK
notes: Tested as hybridoma cell culture supernatant; also called murine anti-26D1
As to B5, the results for the EC50 in assay [2], in assay [8] and in assay [17] were 12.3 µg/mL, 0.169 µg/mL and 0.788 µg/mL, respectively. Further, the OD value in [7] is 0.871 OD.
